From patent US7098304B1, “Assay for the diagnosis of schizophrenia based on a new peptide” (Yeda Research and Development Co. Ltd., priority 1998, dated 2006)

B1: Enolase from Rabbit: commercially available rabbit protein enolase (protein)
chain: AMQKIFAREILDSRGNPTVEVDLHTAKGRFRAAVPSGASTGIYEALELRDGDKSRYLGKGVLKAVEHINKTLGPALLEKKLSVVDQEKVDKFMIELDGTENKSKFGANAILGVSLAVCKAGAAEKGVPLYRHIADLAGNHDLVLPVPAFNVINGGSHAGNKLAMQEFMILPVGASSFREAMRIGAEVYHHLKGVIKAKYGKDATNVGDEGGFAPNILENNEALELLKTAIQAAGYPDKVVIGMDVAASEFHRNGKYDLDFKSPDDPARHITGQKLGELYKSFIKNYPVVSIEDPFDQDDWATWTSFLSGVDIQIVGDDLTVTNPKRIAQAVEKKACNCLLLKVNQIGSVTESIQACKLAQSNGWGVMVSHRSGETEDTFIADLVVGLCTGQIKTGAPCRSERLAKYNQLMRIEEALGDKAVFAGRKFRNPKAK
B2: G-3-P-Dehydrogenase from bacillus subtilis: glyceraldehyde-3-phosphate dehydrogenase (G3PD) enzyme from bacillus subtilis (protein)
chain: AVKVGINGFGRIGRNVFRAALNNPEVEVVAVNDLTDANMLAHLLQYDSVHGKLDAEVSVDGNNLVVNGKTIEVSAERDPAKLSWGKQGVEIVVESTGFFTKRADAAKHLEAGAKKVIISAPANEEDITIVMGVNEDKYDAANHDVISNASCTTNCLAPFAKVLNDKFGIKRGMMTTVHSYTNDQQILDLPHKDYRRARAAAENIIPTSTGAAKAVSLVLPELKGKLNGGAMRVPTPNVSLVDLVAELNQEVTAEEVNAALKEAAEGDLKGILGYSEEPLVSGDYNGNKNSSTIDALSTMVMEGSMVKVISWYDNESGYSNRVVDLAAYIAKKGL

Key:
[1] = tested on: SDAs (schizophrenic derived antibodies); assay: Reactivity of proteins to SDAs (platelet autoantibodies from schizophrenic patients), blot with anti-human Fc-HRP; format: binding; conditions: number of SDA samples that reacted positively with the enzyme, of 8 patients
Experimental: (§1) 1. Platelets and Anti-Platelet Autoantibodies Venous blood (20 ml) was drawn with heparin as anticoagulant from patients and control subjects. Platelet rich plasma (PRP) was obtained by centrifugation (100 g for 20 mins) at room temperature. Plasma free platelets were obtained by washing them three times with phosphate buffered saline (PBS) supplemented with 10 ml mM EDTA as anticoagulant (4000 g; 15 mins; 4° C.). For the isolation of anti-platelet antibodies, the platelets were incubated with 0.1 M glycine/10 mM EDTA, pH 2.8, for 10 min. at room temperature and then centrifuged (4000 g; 15 min; 4° C.). The supernatant containing the anti-platelet antibodies, was neutralized with saturated Na2PO4 solution and stored at −20 until use. 2. Preparative Isoelectric Focusing
(§2) The fractions were analyzed for immuno-reactivity by polyacrylamide (10%) gel electrophoresis, blotting the proteins onto PVDF membranes and probing the membrane with 1 ml auto-antibodies in 50 ml incubation buffer. Anti-human Fc conjugated to horseradish peroxidase (goat) from SIGMA (1:500 dilution) and Fast-DAB™ (SIGMA) or 4-Chloro-naphthol (SIGMA) were used as color reagent in order to detect bound human anti-platelet antibodies.
(§3) Every fifth fraction (0.1 ml) was dot blotted onto PVDF membranes using the DotBlot device (96 wells) from BioRad. Immuno-reactive fractions were then detected as described above (1.3) […]

[2] = tested on: NSDAs (non-schizophrenic derived antibodies); assay: Reactivity of proteins to NSDAs (platelet autoantibodies from control non-schizophrenic individuals), blot with anti-human Fc-HRP; format: binding; conditions: number of NSDA samples that reacted positively with the enzyme, of 8 controls
Experimental: as §1, §2, §3

| Molecule | Patients (n = 8) Positive [1] | Controls (n = 8) Positive [2] |
| --- | --- | --- |
| B1 | 7/8 | 1/8 |
| B2 | 1/8 | 2/8 |
